Measured values from PMC4636433.

Molecular target: Rep68 wt (Adeno-associated virus 2 (AAV2), UniProt P03132 1-536)
Assay: fluorescence anisotropy

Sequence of Rep68 wt (P03132 whole entry): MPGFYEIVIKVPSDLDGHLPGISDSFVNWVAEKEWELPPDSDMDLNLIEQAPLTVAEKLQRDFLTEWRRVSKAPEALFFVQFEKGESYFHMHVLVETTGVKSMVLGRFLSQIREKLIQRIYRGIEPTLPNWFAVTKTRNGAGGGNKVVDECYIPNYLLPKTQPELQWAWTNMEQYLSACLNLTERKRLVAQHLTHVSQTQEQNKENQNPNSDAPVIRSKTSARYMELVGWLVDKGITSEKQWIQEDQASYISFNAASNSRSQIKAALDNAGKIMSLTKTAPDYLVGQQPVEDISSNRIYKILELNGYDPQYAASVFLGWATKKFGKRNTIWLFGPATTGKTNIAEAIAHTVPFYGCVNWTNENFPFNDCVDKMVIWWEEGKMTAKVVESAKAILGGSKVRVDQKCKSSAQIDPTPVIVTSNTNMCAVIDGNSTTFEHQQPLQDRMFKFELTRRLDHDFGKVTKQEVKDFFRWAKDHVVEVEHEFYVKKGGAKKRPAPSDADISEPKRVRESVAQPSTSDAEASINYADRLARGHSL

B1: 41-mer AAVS1 RBS DNA (dsDNA)
DNA 1: TGGCGGCGGTTGGGGCTCGGCGCTCGCTCGCTCGCTGGGCG
DNA 2: CGCCCAGCGAGCGAGCGAGCGCCGAGCCCCAACCGCCGCCA
binding result: binds
